In general, Kd refers to the free concentration of one partner at which half of the binding sites on the other are occupied at equilibrium, for simple one-to-one binding. As a reminder, the koff is a measure of how fast the partners let go of each other. A word on the kon: it is the second-order rate constant of association.

Experiment [1] has as its target T1, Ang2 protein (R&D systems) (human, UniProt O15123 19-496).
T1 sequence: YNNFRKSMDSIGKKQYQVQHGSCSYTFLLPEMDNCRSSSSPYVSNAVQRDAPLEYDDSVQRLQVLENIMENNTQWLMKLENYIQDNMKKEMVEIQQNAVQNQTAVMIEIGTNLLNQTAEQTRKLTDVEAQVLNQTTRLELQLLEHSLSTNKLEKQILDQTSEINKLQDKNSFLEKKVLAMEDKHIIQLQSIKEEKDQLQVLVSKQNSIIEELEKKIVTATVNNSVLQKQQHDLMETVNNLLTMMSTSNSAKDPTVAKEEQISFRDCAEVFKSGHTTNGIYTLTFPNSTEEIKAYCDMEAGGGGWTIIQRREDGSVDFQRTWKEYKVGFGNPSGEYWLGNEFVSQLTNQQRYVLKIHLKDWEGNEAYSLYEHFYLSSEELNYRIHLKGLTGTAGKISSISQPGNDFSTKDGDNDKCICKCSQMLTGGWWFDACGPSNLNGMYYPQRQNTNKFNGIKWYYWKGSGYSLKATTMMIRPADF
Put plainly: cell-based or functional assay.

The target of experiment [2] is Ang2 RBD A449 mutant (with alanine), FLAG-tagged (human) (UniProt O15123). Put plainly: ELISA, antibody coated, FLAG-tagged mutant Ang2 RBD detected with anti-FLAG-HRP.
In experiment [3] the target is T2, Ang2 RBD N467A, FLAG-tagged (human, UniProt O15123 281-496, limits assumed).
T2 chain: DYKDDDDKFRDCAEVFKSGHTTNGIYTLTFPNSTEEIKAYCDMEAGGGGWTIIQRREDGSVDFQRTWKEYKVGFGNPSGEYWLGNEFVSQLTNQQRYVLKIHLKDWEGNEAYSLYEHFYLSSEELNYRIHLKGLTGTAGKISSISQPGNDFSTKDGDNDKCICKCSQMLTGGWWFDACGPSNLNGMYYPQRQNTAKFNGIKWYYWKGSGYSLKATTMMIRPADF
The experiment is described as above. The protocol: To verify the epitope (or specific binding site) of the anti-Ang2 antibody prepared in Reference Example 2.3, an ELISA was performed using a recombinant protein where a receptor binding domain (RBD) of Ang2 protein in the form of being tagged with Flag was mutated by artificial means.
Each well of a 96-well MaxiSorp™ flat-bottom plate (Nunc) was coated with 50 ul (microliter) of 1000 nM antibody. Then, the plate was washed five times with 0.05% (v/v) Tween-20-containing PBS (PBST) and blocked with 1% (v/v) BSA-containing PBS at a room temperature for 2 hours. 250 ng of each mutant Ang2 protein obtained by substituting S417, Q418, P419, N421, 1434, D448, A449, P452, Y460, N467, K468, or F469 residue of Ang2 protein tagged with a FLAG sequence ([…], Sigma) at its N-terminal with alanine was added to each well of the plate, which was then allowed to react at a room temperature for 2 hours.
Finally, 50 ul of TMB substrates (Cell signaling) was added to each well of the plate to induce color development at a room temperature for 3 min. and the reaction was ceased by the addition of 50 ul of Stop solution (Cell signaling) and then, OD450 values were measured on a plate reader (Molecular Devices). By comparing binding affinities with mutated Ang2 to those of unmutated Ang2, each epitope of Ang2 antibodies was identified. The obtained measurement results of the binding affinities (%) with mutant Ang2 against the binding affinity with the native Ang2 are shown in the following Table 13.

Experiment [4] has as its target T3, recombinant hAng-2 (C-His, R&D Systems) (human, UniProt O15123 19-496).
T3 construct: Bought protein; also called human Ang-2 protein; C-terminal histidine-tagged human Ang2 (R&D Systems); not shown: C-terminal His tag
T3 sequence: T1 sequence
Put plainly: SPR, BIAcore T100; hAng2 (C-His) captured by anti-His antibody on CM5, antibody as analyte. As for the experimental part: The binding affinity (KD values) of the antibodies to human Ang2 protein was measured by an SPR method using a BIAcore T100 (GE Healthcare). 25 μg/ml anti-His antibody was immobilized on a CM5 sensor chip (GE healthcare) using a pH 5.0 acetate solution and an amine coupling kit (GE Healthcare). 6 μg/ml of a recombinant hAng2 (C-His, R&D Systems) protein was flowed onto the chip to be captured at 100 to 200 RU levels.
(In SPR one partner is held on a chip, and binding of the other changes the refractive index at the surface.)

Another experiment concerns the target T4, BSA (Bos taurus, UniProt P02769).
T4 construct: commercial preparation; also called Bovine serum albumin; Sigma
As to the kind of experiment: Complex ELISA: plate coated with BSA, 10D6 2 ug/ml with or without FLAG-Ang2 0.25 ug/ml, anti-mouse IgG-HRP, OD450. As for the experimental part:
A 96-well MaxiSorp™ flat-bottom plate (Nunc) was coated with 4 μg/ml of Tie2-Fc (R&D systems) or BSA (Sigma). Then, the plate was washed five times with 0.05% (v/v) Tween-20-containing PBS (Phosphate Buffer Saline) and blocked with 1% (v/v) BSA (Bovine serum albumin; Sigma)-containing PBS at a room temperature for 2 hours. 0.25 μg/ml of Ang2 and 2 μg/ml of 10D6 antibody were added to each well of the plate, which was allowed to react at a room temperature for 2 hours and then washed five times with PBST. After that, an anti-mouse IgG antibody (Sigma) conjugated with HRP diluted in 1% (v/v) BSA-containing PBS at a ratio of 1:5,000 (v/v) was added in an amount of 100 ul to each well to react at a room temperature for 1 hour and then, the plate was washed five times with PBST. Lastly, 100 ul (microliter) of TMB substrate (Cell Signaling) was added to each well of the plate to induce color development for 3 min. and then, the reaction was ceased by the addition of 100 ul of Stop solution (Cell Signaling) and OD450 values were measured on a plate reader (Molecular Devices).
(In an ELISA, binding on a coated surface is turned into a signal by an enzyme label.)

T4 sequence (P02769 25-607 limits assumed): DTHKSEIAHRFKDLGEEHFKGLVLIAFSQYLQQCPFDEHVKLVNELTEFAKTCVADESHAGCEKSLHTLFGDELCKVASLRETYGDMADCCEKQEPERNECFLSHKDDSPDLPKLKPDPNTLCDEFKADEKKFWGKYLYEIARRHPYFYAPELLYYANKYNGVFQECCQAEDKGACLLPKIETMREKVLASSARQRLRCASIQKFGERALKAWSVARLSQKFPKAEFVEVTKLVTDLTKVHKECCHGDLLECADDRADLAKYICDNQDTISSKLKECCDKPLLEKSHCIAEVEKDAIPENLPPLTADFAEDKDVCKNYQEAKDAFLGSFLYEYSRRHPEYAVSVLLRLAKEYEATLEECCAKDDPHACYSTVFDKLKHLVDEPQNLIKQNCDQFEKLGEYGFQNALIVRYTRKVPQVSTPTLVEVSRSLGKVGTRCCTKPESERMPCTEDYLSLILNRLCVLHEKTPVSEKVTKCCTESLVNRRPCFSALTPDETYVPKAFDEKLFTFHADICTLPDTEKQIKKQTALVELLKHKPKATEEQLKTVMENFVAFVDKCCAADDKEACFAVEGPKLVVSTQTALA

B1: SAIT-ANG2-AB-m10D6 (antibody, V domains shown)
VH: DVQLQESGPDLVKPSQSLSLTCTVTGYSITSDYAWNWIRQFPGNKLEWMGYINYSGNTDYNPSLKSRSSITRDTSKNQFFLQLNSVTTGDTATYYCARGNFEGAMDYWGQGTSVTVSS
VL: SIVMTQTPKFLLVSAGDRVTITCKASQSVSNDVAWYQQKPGQSPKLLIYYASNRYPGVPDRFTGSGYGTDFTFTISTVQAEDLAVYFCQQDYSSPWTFGGGTKLEIK
notes: Mouse monoclonal antibody purified from a hybridoma (KCLRF-BP-00295); it is not applied here; also called mouse antibody 10D6; 10D6 antibody
For B1, in experiment [1], the “Tie2 phosphorylation effect against control antibody RG” value was approximately 8.6 fold and the “Tie2 phosphorylation level (pTyr/Tie2 ratio, HUVEC, 60 nM antibody)” value was 180%. The binding affinity (%) with mutant Ang2 against the binding affinity with the native Ang2 in experiment [2] was found to be 97.9%. Also, the “binding affinity (%) with mutant Ang2 against the binding affinity with the native Ang2” value in experiment [3] is 107%. Also, in experiment [4], the Kd came to 8 nM, the koff was determined as 0.000193 s⁻¹ and the kon was determined as 24100 M⁻¹ s⁻¹. Besides, in the experiment with BSA, the binding result is on record as “no binding (tested: 2 ug/ml)”.
